Data on five compounds can be found in patent US12016935B2, “Methods for detecting CCR2 receptors” (Washington University, priority 2016, dated 2024).

Where no end group is shown, it is not given here. [ ]: non-standard residue; d: D form.

Data set [1] in a line: Toxicity study in mice (serum chemistries, histology). Format: in vivo, mouse. Particulars: i.v. 110 μg, 500-fold the estimated human imaging dose; evaluated 24 h later. How it is done: Toxicity studies were performed by S. Greco, DVM (Dept. of Comparative Med., Washington Univ.).
In a further data set the target is T1, human CX3CR1 (Homo sapiens, UniProt P49238).
T1 construct: expressed in transfected cells
T1 sequence (P49238 1-355): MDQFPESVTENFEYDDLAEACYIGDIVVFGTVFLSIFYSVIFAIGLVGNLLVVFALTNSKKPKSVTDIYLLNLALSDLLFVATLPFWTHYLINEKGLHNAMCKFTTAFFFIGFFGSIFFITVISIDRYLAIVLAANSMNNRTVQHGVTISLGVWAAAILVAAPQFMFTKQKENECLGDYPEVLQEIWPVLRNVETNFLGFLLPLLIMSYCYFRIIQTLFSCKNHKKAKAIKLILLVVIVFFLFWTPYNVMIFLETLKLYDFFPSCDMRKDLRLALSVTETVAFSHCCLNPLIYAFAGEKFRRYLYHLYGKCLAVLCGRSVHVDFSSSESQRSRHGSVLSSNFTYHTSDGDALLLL
Briefly: Migration of cells expressing human CX3CR1. The class given is cell-based.

The target in the next data set is T2, human CCR1 (Homo sapiens, UniProt P32246).
T2 construct: expressed in transfected cells
T2 sequence (P32246 1-355): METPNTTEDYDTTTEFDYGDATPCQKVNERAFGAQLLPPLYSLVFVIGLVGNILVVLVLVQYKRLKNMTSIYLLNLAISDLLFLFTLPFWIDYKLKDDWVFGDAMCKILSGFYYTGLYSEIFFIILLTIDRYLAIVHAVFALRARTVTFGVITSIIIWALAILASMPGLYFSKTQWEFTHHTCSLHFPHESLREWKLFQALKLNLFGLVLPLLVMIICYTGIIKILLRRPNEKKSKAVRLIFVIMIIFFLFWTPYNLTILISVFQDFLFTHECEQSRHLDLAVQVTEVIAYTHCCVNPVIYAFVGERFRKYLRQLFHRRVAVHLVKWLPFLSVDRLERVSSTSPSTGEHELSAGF
Briefly: Migration of cells expressing human CCR1. Format: cell-based.

The next data set concerns the target T3, human CCR5 (Homo sapiens, UniProt P51681).
T3 construct: expressed in transfected cells
Briefly: Migration of cells expressing human CCR5. The class given is cell-based.

The test system of data set [2] is CCR2^+ inflammatory monocytes. Briefly: CCL2-mediated chemotaxis of monocytes. Format: cell-based. From the text:
(§1) CCR2^+ cells migrate in response to CCL2.

Data set [3] relates to CD45^+ immune cells in COPD lung. In words: Flow cytometry of cells digested from human COPD lung. Format: cell-based. As for the experimental part:
There were three CCR2 phenotypes (high, intermediate, normal), with implications for future therapies. […] Our tissue bank also includes cells digested from lung for flow cytometry studies. […] We obtain approximately 6-8 explanted lungs per year from COPD subjects. We propose to also examine lung tissue incubated with ECL1i-647 and cells specific antibodies using two-photon microscopy to localize ECL1i.
For orientation: Flow cytometry measures light scatter and fluorescence of single cells or particles in a stream.

In data set [4] the target is T4, CCR2 (Mus musculus, UniProt P51683). Briefly: PET/CT imaging in LPS mouse lung injury model. Format: in vivo. More on the design: tissue The Jackson Laboratories; host or cells: C57BL/6 mice, lung and aortic arch in vivo (CCR2+ monocytes/macrophages). Particulars: PET. From the text:
The Institutional Animal Care and Use Committee approved these studies. Wild type (n=77) and CCR2-deficient (CCR2^−/−, n=4) mice (C57BL6/J strain) were 8 to 12 weeks of age, of both sexes and approximately 25 g in weight. Mice were used for radiotracer stability studies (n=3) and lung injury studies that included: immunostaining for CCR2 (n=6), in vivo immune cell peptide binding (n=18), lung water weight measurements (n=6), in vivo biodistribution (n=12) and PET/CT imaging (n=36). For the lung injury studies, mice were not treated (naive, n=8), administered intratracheal vehicle control, phosphate buffered saline (PBS, 1 μL/g, n=26) or lipopolysaccharide (LPS, endotoxin, E. coli strain 055:B5, Sigma-Aldrich, St. Louis, MO), at a dose of 2.5 μg/g (n=44), “high” dose, 10 μg/g (n=3), or “low” dose, 0.5 μg/g (n=3) LPS. All CCR2-deficient mice were administered an LPS dose of 2.5 μg/g. Lung water was quantified using wet-to-dry weight ratios in PBS- or intermediate dose LPS-treated mice (n=3/group). Lungs were resected and weighted immediately, then compared to weights obtained after drying at 65° C. for 48 h.
Time-activity curves were calculated from the ROIs from PET images obtained in a subgroup (n=3/group) of the PBS- and LPS-treated mice undergoing imaging at 24 h. […]

The next data set deals with T5, human CCR2 (hCCR2) (Homo sapiens, UniProt P41597).
T5 construct: expressed in transfected cells; host or cells: CHO
In words: CCL2-induced chemotaxis in CHO cells that stably express human CCR2. Format: cell-based.
Text: as §1

Data set [5] addresses T6, CCR2 (Homo sapiens, UniProt P41597). In words: Binding of fluorescently-labeled CCL1 to CCR2-expressing HEK293 cells. Also on record: expressed in transfected cells; host or cells: HEK293.
Text: as §1
Target sequence in this assay (P41597 whole entry, species assumed): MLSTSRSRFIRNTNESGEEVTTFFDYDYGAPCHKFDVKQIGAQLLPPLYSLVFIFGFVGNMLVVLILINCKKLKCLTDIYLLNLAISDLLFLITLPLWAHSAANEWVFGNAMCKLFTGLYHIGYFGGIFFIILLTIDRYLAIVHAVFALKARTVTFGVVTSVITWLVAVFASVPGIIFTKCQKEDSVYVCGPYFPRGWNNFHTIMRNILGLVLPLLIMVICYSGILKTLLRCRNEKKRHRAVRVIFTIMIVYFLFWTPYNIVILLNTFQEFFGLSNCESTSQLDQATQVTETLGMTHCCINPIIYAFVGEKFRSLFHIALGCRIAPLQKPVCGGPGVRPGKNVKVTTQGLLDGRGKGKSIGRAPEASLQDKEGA

Data set [6] has as its target T6, CCR2. More on the design: expressed in transfected cells; host or cells: HEK293. Particulars: compared to CCL2 ligand in vitro; cited from earlier work.
Target sequence in this assay (P41597 whole entry, species assumed): as above
The conditions of data set [7]: mouse, in vivo. As for the experimental part: C57BL/6 mice were used for the biodistribution studies. About 10 μCi of ^64Cu-DOTA-ECL1i in 100 μL saline (APP pharmaceuticals, Schaumburg, IL) were injected via the tail vein. The mice were anesthetized with inhaled isoflurane and re-anesthetized before euthanasia by cervical dislocation at each time point (1 hour after injection, n=4/group). Organs of interest were collected, weighed and counted in a Beckman 8000 gamma counter (Beckman, Fullterton, CA).

In data set [8] the target is T4, CCR2.
Method: Instead of a dynamic scan, a static scan was performed at 1, 4 and 24 hours after injection. The PET images were reconstructed with the maximum a posteriori algorithm and analyzed by Inveon Research Workplace. The organ uptake was calculated as percent injected dose per gram (% ID/g) of tissue in three-dimensional regions of interest without the correction for partial volume effect (14).
The subject of data set [9] is monocytes (Ly6G^lo, Ly6C^hi). In words: Flow cytometry of lung immune cells binding ECL1i-Dylight 550 in vivo. Also on record: species or system mouse. The following applies: injected i.v. 24 h post LPS; lungs analyzed one hour later. As for the experimental part:
Mice (n=4 PBS, n=5 LPS) delivered intratracheal PBS or LPS, and 24 hours later were injected intravenously with ECL1i labeled with Dylight 550 (100 μg) to determine the type of inflammatory cell binding ECL1i. Other mice were treated in parallel but not given ECL1i-Dylight 550 (n=4 PBS, n=5 LPS). One h post-injection, a single cell suspension was produced from the lungs, immunostained with immune cell markers (TABLE 2) and analyzed by flow cytometry.
Mice delivered intratracheal PBS or LPS were injected intravenously with ECL1i labeled with Dylight 550, as with the radiolabeled probe, to determine the type of inflammatory cell binding ECL1i. […] Cells were suspended in FACS buffer, counted by hemocytometer, and prepared for flow cytometry. […] Counts from 1 to 10×10^4 cells were collected for each sample on a FACSCalibur (Becton Dickinson), dual laser, flow cytometer using CellQuest Pro software (BD Biosciences), and analyzed using FlowJo software (Ashland, OR). The mean fluorescent intensity was determined by calculating the geometric mean of Dylight 550 fluorescence of the cell types identified in ECL1i-Dylight 550-injected mice and subtracting the fluorescent background of the same cell types from similarly treated mice not injected with ECL1i-Dylight 550.

The target in data set [10] is T6, CCR2. Briefly: Autoradiography on human lung tissue sections. The class given is binding. Also on record: Fixed human lung tissue sections; from tissue; host or cells: human lung (COPD explants and donor lungs), fixed paraffin sections. Particulars: lung tissue from subjects with COPD. As for the experimental part: Fixed human lung tissue sections that were deparaffinized and hydrated in PBS were incubated with ^64Cu-DOTA-ECL1i for 5 min (n=4 donor, n=6 COPD). […] Slides were washed 30 times with water then placed in an instant imager (Packard, Meriden, CT) for 30 minutes.
Target sequence in this assay (P41597 whole entry): as the sequence (P41597 whole entry, species assumed) above

The conditions of data set [11]: mouse, in vivo. The source holds these as a separate data set.
Method: After euthanasia, 1 h post-radiotracer injection, organs of interest were collected, weighed and assayed by gamma counter (Beckman, Brea, CA) as described (23). Standards were prepared and measured in parallel to calculate the percentage of the injected dose per gram of tissue (% ID/g).

T4 sequence (P51683 whole entry): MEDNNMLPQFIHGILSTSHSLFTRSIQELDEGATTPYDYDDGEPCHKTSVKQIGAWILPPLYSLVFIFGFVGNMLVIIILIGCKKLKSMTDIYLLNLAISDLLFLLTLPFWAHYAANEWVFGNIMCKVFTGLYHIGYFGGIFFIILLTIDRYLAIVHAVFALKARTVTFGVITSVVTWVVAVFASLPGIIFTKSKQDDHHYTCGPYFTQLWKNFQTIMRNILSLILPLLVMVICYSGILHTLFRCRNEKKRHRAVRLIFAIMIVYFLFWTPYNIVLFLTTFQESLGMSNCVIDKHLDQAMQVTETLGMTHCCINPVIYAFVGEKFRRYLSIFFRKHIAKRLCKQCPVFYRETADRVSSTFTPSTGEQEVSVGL
T5 sequence (P41597 whole entry): as the sequence (P41597 whole entry, species assumed) above
T3 sequence (P51681 whole entry): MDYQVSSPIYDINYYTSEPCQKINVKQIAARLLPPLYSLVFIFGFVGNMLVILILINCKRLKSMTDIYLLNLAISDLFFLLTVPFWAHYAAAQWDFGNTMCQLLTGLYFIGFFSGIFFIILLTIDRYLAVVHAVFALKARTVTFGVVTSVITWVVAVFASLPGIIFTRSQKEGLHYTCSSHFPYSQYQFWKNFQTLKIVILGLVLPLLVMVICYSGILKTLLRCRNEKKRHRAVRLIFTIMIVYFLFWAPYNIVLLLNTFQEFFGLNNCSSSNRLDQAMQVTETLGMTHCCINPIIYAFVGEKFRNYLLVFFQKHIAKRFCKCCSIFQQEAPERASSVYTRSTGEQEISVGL

Regarding `CC(C)C[C@@H](N)C(=O)NCC(=O)N[C@@H](C(=O)N[C@H](Cc1ccccc1)C(=O)N[C@H](CC(C)C)C(=O)N[C@H](CCCCN)C(=O)N[C@H](CSC1CC(=O)N(CCNC(=O)CN2CCN(CC(=O)O)CCN(CC(=O)O)CCN(CC(=O)O)CC2)C1=O)C(=O)O)[C@H](C)O` (single isomer, unassigned) [Cu-DOTA-ECL1i], the toxicity findings result in data set [1] is “normal serum hepatic and renal chemistries, and histologic examination of lung, liver and kidneys”.
With “DLeu-Gly-DThr-DPhe-DLeu-DLys-DCys ([dL]G[dT][dF][dL][dK][dC]) [ECL1i]”, the inhibition of migration entry with human CX3CR1, with human CCR1 and in the data set with human CCR5 was “did not inhibit the migration” each time. In [2], the “inhibition of CCL2-mediated chemotaxis of monocytes” value is on record as “inhibited CCL2-mediated chemotaxis of CCR2^+ inflammatory monocytes, but not of resident monocytes”. In addition, the “binding to human lung cells” value in [3] is recorded as “bound a population of CD45^+ immune cells”. Also, in the data set with CCR2 [4], the “activity in lungs after intratracheal lipopolysaccharide relative to saline control group” value was 3.5 fold. In addition, the “induction of migration of CHO-hCCR2 cells” value in the data set with human CCR2 (hCCR2) (at concentrations that inhibited CCL2 signaling) is “did not induce the migration”. Besides, the “inhibition of CCL2-induced chemotaxis” value in the data set with human CCR2 (hCCR2) (concentration-dependent manner) is recorded as “specifically inhibited CCL2-induced chemotaxis”. Besides, in the data set with CCR2 [5], the “effect on binding of fluorescently-labeled CCL1” value is “did not prevent the binding”. Also, the CCR2 binding mode entry in the data set with CCR2 [6] is given as “selectively bind CCR2 in a non-competitive way”.
For “^64CuAuNCs-ECL1i: ECL1i-conjugated gold nanoclusters doped with ^64Cu; multivalent targeted nanocluster ([dL]G[dT][dF][dL][dK][dC]; also: joined via TA-PEG-Maleimide to a gold nanocluster doped with 64Cu, attachment site not given here)”, the “retention in the blood relative to monovalent ^64Cu-DOTA-ECL1i” value in [7] is given as “six-fold higher”. Also, in the data set with CCR2 [8] (accumulation of ^64CuAuNCs in native lungs set as background), the “share of accumulation in pulmonary grafts due to CCR2-mediated uptake” value was “more than 80%”.
Consider “ECL1i-Dylight 550: Maleimide-modified Dylight 550 conjugated to ECL1i on the cysteine residue ([dL]G[dT][dF][dL][dK][dC](Dylight 550 maleimide))”, for which, in data set [9], the “binding to monocytes (Ly6G^lo, Ly6C^hi) induced by LPS” value was “significant binding”.
With `CC(C)C[C@@H](N)C(=O)NCC(=O)N[C@@H](C(=O)N[C@H](Cc1ccccc1)C(=O)N[C@H](CC(C)C)C(=O)N[C@H](CCCCN)C(=O)N[C@H](CSC1CC(=O)N(CCNC(=O)CN2CCN(CC(=O)O)CCN(CC(=O)O)CCN(CC(=O)O)CC2)C1=O)C(=O)O)[C@H](C)O` (single isomer, unassigned) [^64Cu-DOTA-ECL1i, metal not drawn], the “uptake in the donor lung relative to native lung (biodistribution)” value in [7] is “more than twice”. Moreover, the “specificity determined by non-radioactive blockade” value on CCR2 [10] turned out to be 54.5%. Moreover, the “blood retention, LPS versus PBS treated mice” value in data set [11] is recorded as “no difference in blood retention”. The “PET signal in the grafts blocked by competitive receptor blocking” value at CCR2 [8] (transplantation into wild type recipients, excess ECL1i) is recorded as “approximately 75%”.
